Among the data in patent publication US20250011363A1, “OPTIMIZED SHORTENED PEPTIDE THAT BINDS TO ACETYLCHOLINE RECEPTOR, AND USE THEREOF” (SKINMED CO., LTD., priority 2021, published 2025) are Binding affinity values, retold here.

In the assay the target is acetylcholine receptor (Homo sapiens, UniProt P02708). Description: SPR binding affinity (RU) of optimized 5mer/6mer/7mer peptides, Examples 6-7. The conditions noted are these: SPR, peptides tested at 10 μM. The method in brief: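 Synthetic 5mer and 6mer peptides, built from frequent or infrequent amino-acid combinations, were tested at 10 μM for binding to the human acetylcholine receptor by surface plasmon resonance. Binding is reported in response units (RU).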
Chain of acetylcholine receptor (P02708 21-457): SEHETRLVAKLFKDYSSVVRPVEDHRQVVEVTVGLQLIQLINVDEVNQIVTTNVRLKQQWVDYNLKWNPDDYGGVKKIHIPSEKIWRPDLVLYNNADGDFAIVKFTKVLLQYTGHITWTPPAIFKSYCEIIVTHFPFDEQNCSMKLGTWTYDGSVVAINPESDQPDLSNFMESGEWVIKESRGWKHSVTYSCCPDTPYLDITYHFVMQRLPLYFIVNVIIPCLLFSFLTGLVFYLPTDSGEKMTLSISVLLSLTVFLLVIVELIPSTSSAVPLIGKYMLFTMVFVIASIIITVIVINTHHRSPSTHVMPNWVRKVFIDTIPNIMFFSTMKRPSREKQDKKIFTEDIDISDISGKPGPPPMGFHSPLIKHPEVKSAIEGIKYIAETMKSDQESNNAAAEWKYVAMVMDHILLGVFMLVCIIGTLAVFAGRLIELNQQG
Background: In SPR one partner is held on a chip, and binding of the other changes the refractive index at the surface.

Setting [1] is: Resonance Units, 6mer-2 Top sequence (Table 12).

Take 6mer-2-190 (KVYLKR): under “6mer-2 Top sequence”, the Binding affinity was determined as 148 Ru.
The same measure, in the same setting: the result for 6mer-2-191 (RQLLKR) reads 154 Ru; that for 6mer-2-192 (RWFSKK), 133 Ru; that for 6mer-2-193 (KWISKR), 127 Ru.
Same read-out and setting: the result for 6mer-2-194 (KLRLRK) reads 154 Ru.
The same measure, in the same setting: the result for 6mer-2-195 (KSRQKR) reads 154 Ru; that for 6mer-2-196 (KSQRKK), 121 Ru; that for 6mer-2-197 (RGQYRR), 126 Ru.
As for 6mer-2-198 (KWYYRK), the Binding affinity (6mer-2 Top sequence) was 139 Ru.
As for 6mer-2-199 (RGQYKR), the Binding affinity (6mer-2 Top sequence) came to 137 Ru.
Same read-out and setting: the result for 6mer-2-200 (RGVQRK) reads 121 Ru.
The same measure, in the same setting: with 6mer-2-201 (KLFLRR) the figure was 148 Ru; with 6mer-2-202 (RLIYKK), 122 Ru.
As for 6mer-2-203 (KSRTKR), the Binding affinity under setting [1] stood at 135 Ru.
The same measure, in the same setting: the result for 6mer-2-204 (RRVQKR) reads 142 Ru.
Regarding 6mer-2-205 (KSFQRK), the Binding affinity under setting [1] was 147 Ru.
Take 6mer-2-206 (KWQYKK): under setting [1], the Binding affinity is 148 Ru.
On the same count and under the same terms, the result for 6mer-2-207 (KWVSKR) reads 153 Ru; that for 6mer-2-208 (RSQQRK), 128 Ru.
Still for that read-out and setting: with 6mer-2-209 (RLYYRK) the figure was 148 Ru; with 6mer-2-210 (RSQSRR), 128 Ru; with 6mer-2-211 (RGLSRR), 135 Ru.
Still for that read-out and setting: the result for 6mer-2-212 (KWQLRR) reads 148 Ru.
On to 6mer-2-213 (KSILRR), for which the Binding affinity under setting [1] amounted to 142 Ru.
For 6mer-2-214 (RWRSRK), under setting [1], the Binding affinity was 139 Ru.
Same read-out and setting: with 6mer-2-215 (RLYYRR) the figure was 123 Ru.
6mer-2-216 (KGILKK): the Binding affinity under setting [1] is given as 126 Ru.
On the same count and under the same terms, the result for 6mer-2-217 (KLFQKK) reads 135 Ru.
Still for that read-out and setting: with 6mer-2-218 (KGVSKK) the figure was 147 Ru; with 6mer-2-219 (RGVSKR), 153 Ru.
Same read-out and setting: the result for 6mer-2-220 (KVYSKR) reads 135 Ru; that for 6mer-2-221 (KQVRKK), 153 Ru; that for 6mer-2-222 (RVVYRK), 127 Ru.
Consider 6mer-2-223 (KQLTRR), for which the Binding affinity under setting [1] stood at 142 Ru.
Still for that read-out and setting: with 6mer-2-224 (RLFLKR) the figure was 148 Ru.
In the case of 6mer-2-225 (KRLLRR), the Binding affinity under setting [1] was 145 Ru.
With 6mer-2-226 (RLLCKR), the Binding affinity under setting [1] was found to be 154 Ru.
On the same count and under the same terms, with 6mer-2-227 (KLQRRK) the figure was 147 Ru.
On the same count and under the same terms, with 6mer-2-228 (KGQCKK) the figure was 141 Ru.
On the same count and under the same terms, the result for 6mer-2-229 (RWQSKK) reads 127 Ru; that for 6mer-2-230 (RWIQRR), 135 Ru; that for 6mer-2-231 (KGISKK), 144 Ru.
With 6mer-2-232 (KQFTRK), the Binding affinity under setting [1] worked out at 135 Ru.
Regarding 6mer-2-234 (RSQTKR), the Binding affinity under setting [1] was found to be 142 Ru.
Same read-out and setting: with 6mer-2-235 (KLVRKK) the figure was 136 Ru; with 6mer-2-236 (KWQQKK), 131 Ru; with 6mer-2-237 (RLVYKR), 123 Ru.
Still for that read-out and setting: the result for 6mer-2-238 (RRRRRK) reads 142 Ru; that for 6mer-2-239 (RGQYKK), 125 Ru.
On to 6mer-2-240 (RRRCRK), for which, under setting [1], the Binding affinity is 142 Ru.
Consider 6mer-2-241 (KQLTKR), for which, under setting [1], the Binding affinity stood at 135 Ru.
The same measure, in the same setting: the result for 6mer-2-242 (KSQRRR) reads 135 Ru.
Still for that read-out and setting: with 6mer-2-243 (KRVLKR) the figure was 148 Ru.
On the same count and under the same terms, with 6mer-2-244 (RRFSKR) the figure was 139 Ru; with 6mer-2-245 (RSLSKR), 135 Ru; with 6mer-2-246 (KWISKK), 123 Ru.
Regarding 6mer-2-247 (KGYQKK), the Binding affinity under setting [1] was 146 Ru.
Same read-out and setting: the result for 6mer-2-248 (RSYTRR) reads 154 Ru; that for 6mer-2-249 (RGLRKR), 136 Ru.
Same read-out and setting: the result for 6mer-2-250 (KRRRKK) reads 145 Ru.
The same measure, in the same setting: the result for 6mer-2-251 (KSQTKR) reads 142 Ru; that for 6mer-2-252 (KVFRKK), 148 Ru.
As to 6mer-2-253 (KLRSRR), the Binding affinity under setting [1] came out at 145 Ru.
Turning to 6mer-2-254 (KRIQRR), the Binding affinity under setting [1] came out at 148 Ru.
The same measure, in the same setting: with 6mer-2-255 (RLRRKK) the figure was 139 Ru; with 6mer-2-256 (KSQQKR), 142 Ru; with 6mer-2-257 (KRFCRK), 144 Ru.
On to 6mer-2-258 (KRIYRR), for which the Binding affinity under setting [1] came to 125 Ru.
The same measure, in the same setting: with 6mer-2-259 (RVQSKR) the figure was 128 Ru; with 6mer-2-260 (RRFCKR), 142 Ru.
As for 6mer-2-261 (RWYTKK), the Binding affinity under setting [1] worked out at 121 Ru.
The same measure, in the same setting: with 6mer-2-262 (KWILKR) the figure was 142 Ru.
The same measure, in the same setting: with 6mer-2-263 (RRICKR) the figure was 145 Ru; with 6mer-2-264 (KSQLKR), 127 Ru; with 6mer-2-265 (RRQTRK), 135 Ru.
The same measure, in the same setting: the result for 6mer-2-266 (RWQTKK) reads 131 Ru.
In the case of 6mer-2-267 (KLYSRR), the Binding affinity under setting [1] is 141 Ru.
On the same count and under the same terms, with 6mer-2-268 (RQICKK) the figure was 139 Ru; with 6mer-2-269 (KWVQRK), 123 Ru.
On the same count and under the same terms, the result for 6mer-2-270 (KSRLRR) reads 148 Ru; that for 6mer-2-271 (RLFQKK), 131 Ru.
Same read-out and setting: the result for 6mer-2-272 (KWRSRK) reads 154 Ru.
As to 6mer-2-273 (KLRQRR), the Binding affinity under setting [1] is given as 131 Ru.
On the same count and under the same terms, with 6mer-2-274 (KLRTKR) the figure was 148 Ru.
Regarding 6mer-2-275 (KLITRR), the Binding affinity under setting [1] amounted to 135 Ru.
The same measure, in the same setting: with 6mer-2-276 (RLVCRK) the figure was 153 Ru.
In the case of 6mer-2-277 (RLRYRK), the Binding affinity under setting [1] is recorded as 128 Ru.
The same measure, in the same setting: the result for 6mer-2-278 (RQIQKK) reads 135 Ru.
Consider 6mer-2-279 (KSLQRK), for which the Binding affinity under setting [1] was 148 Ru.
Same read-out and setting: the result for 6mer-2-280 (KSIYRR) reads 153 Ru.
Still for that read-out and setting: with 6mer-2-281 (KGQRKK) the figure was 149 Ru; with 6mer-2-282 (RQQYRK), 151 Ru; with 6mer-2-283 (KLISKR), 148 Ru.
Same read-out and setting: with 6mer-2-284 (KLRSKR) the figure was 151 Ru; with 6mer-2-285 (RRIQRR), 142 Ru; with 6mer-2-286 (KRRYKK), 139 Ru.
For the substance 6mer-2-287 (RLYLKR), under setting [1], the Binding affinity is on record as 124 Ru.
Same read-out and setting: with 6mer-2-288 (KSRLRK) the figure was 122 Ru; with 6mer-2-289 (RLLQKK), 146 Ru.
The same measure, in the same setting: the result for 6mer-2-290 (RQLYRK) reads 135 Ru; that for 6mer-2-291 (RRYRKR), 154 Ru; that for 6mer-2-292 (RQLCKR), 121 Ru.
Still for that read-out and setting: with 6mer-2-293 (KQQSKR) the figure was 153 Ru; with 6mer-2-294 (KLYYRR), 135 Ru; with 6mer-2-295 (KVRYKK), 145 Ru.
With 6mer-2-296 (KWYRRK), under setting [1], the Binding affinity amounted to 135 Ru.
Still for that read-out and setting: the result for 6mer-2-297 (RSLSRR) reads 139 Ru.
On the same count and under the same terms, the result for 6mer-2-298 (KWICKK) reads 149 Ru; that for 6mer-2-299 (RWYYRK), 141 Ru.
On the same count and under the same terms, with 6mer-2-300 (RWRLKK) the figure was 153 Ru; with 6mer-2-301 (RQVRKR), 122 Ru.
In the case of 6mer-2-302 (KQICKK), the Binding affinity under setting [1] is given as 148 Ru.
Same read-out and setting: with 6mer-2-303 (KVFTKR) the figure was 126 Ru; with 6mer-2-304 (KWFYRK), 144 Ru.
Still for that read-out and setting: the result for 6mer-2-305 (KQFYKK) reads 154 Ru; that for 6mer-2-306 (RQFQKR), 141 Ru; that for 6mer-2-307 (RLRSKK), 141 Ru.
The same measure, in the same setting: the result for 6mer-2-308 (KGISKR) reads 148 Ru; that for 6mer-2-309 (KRRRRR), 151 Ru.
On to 6mer-2-310 (KLFQRK), for which the Binding affinity under setting [1] is given as 149 Ru.
On the same count and under the same terms, with 6mer-2-311 (KVVTRK) the figure was 147 Ru.
Same read-out and setting: with 6mer-2-312 (KWRTKR) the figure was 121 Ru.
On the same count and under the same terms, with 6mer-2-313 (RWRTKR) the figure was 154 Ru; with 6mer-2-314 (KQYCKK), 127 Ru; with 6mer-2-315 (RRQRRR), 139 Ru.
As to 6mer-2-316 (KGIRRR), the Binding affinity under setting [1] came to 139 Ru.
On the same count and under the same terms, the result for 6mer-2-317 (RGLYKR) reads 135 Ru; that for 6mer-2-318 (RGIQKK), 145 Ru; that for 6mer-2-319 (RSRQRK), 137 Ru.
Same read-out and setting: the result for 6mer-2-320 (RQYRRK) reads 148 Ru; that for 6mer-2-321 (KLVSRK), 139 Ru.
